Values joined by “and” are separate entries in the source; they are usually repeats but may differ in a detail not shown here. Identical values can stand only once.
Assays:
[1] = biological target: recombinant Fasciola hepatica cytosolic Cu/Zn superoxide dismutase (rFhSOD1) (Fasciola hepatica); experiment: SEC; Superdex 75 10/300 GL column, 400 uL/min, eluted into 1x PBS; standards conalbumin (76 kDa), carbonic anhydrase (29 kDa), aprotinin (6.5 kDa)
[2] = biological target: recombinant Fasciola hepatica extracellular Cu/Zn superoxide dismutase (rFhSOD3), signal peptide removed (Fasciola hepatica); experiment: as above

| Substance | stoichiometry N [1] | stoichiometry N [2] |
| --- | --- | --- |
| recombinant Fasciola hepatica cytosolic Cu/Zn superoxide dismutase (rFhSOD1) (enzyme) | 2 | – |
| recombinant Fasciola hepatica extracellular Cu/Zn superoxide dismutase (rFhSOD3), signal peptide removed (enzyme) | – | 2 and 4 |

Source: paper PMC9598480
